Assay results from article PMC4338043.
Where two headings read alike, the source gives them in different places.

How the values were obtained:
Experiment in all cases: AUC
[1] = target: Bacillus anthracis inosine-5'-monophosphate dehydrogenase (Bacillus thuringiensis serovar monterrey BGSC 4AJ1 (sequence 100% identical to B. anthracis IMPDH))
[2] = target: Bacillus anthracis inosine-5'-monophosphate dehydrogenase (Bacillus thuringiensis serovar monterrey BGSC 4AJ1 (sequence 100% identical to B. anthracis IMPDH)); remark: listed apart in the source
[3] = target: Klebsiella pneumoniae inosine-5'-monophosphate dehydrogenase (Klebsiella pneumoniae strain 52145)
[4] = target: Klebsiella pneumoniae inosine-5'-monophosphate dehydrogenase (Klebsiella pneumoniae strain 52145); remark: listed apart in the source

Substance: Bacillus anthracis inosine-5'-monophosphate dehydrogenase (from UniProt A0A0K0Q667 1-487) (enzyme)
- stoichiometry N [1]: 4
- stoichiometry N [2]: 8

Substance: Klebsiella pneumoniae inosine-5'-monophosphate dehydrogenase (enzyme)
- stoichiometry N [3]: 4
- stoichiometry N [4]: 8
